We go through three molecules from patent US20260108618A1 (published 2026).

Assay [1] deals with T1, Conjugate 45b (human, UniProt P0DOX5 203-448 = IgG part). The assay is described as follows: ELISA. (In an ELISA, binding on a coated surface is turned into a signal by an enzyme label.)
Assay [2] addresses T1, Conjugate 45b. The assay is described as follows: ELISA: conjugate coated on the plate, His-tagged receptor titrated, anti-His HRP detection.

B1: mouse FcγR2B/CD32b (receptor)
chain: THDLPKAVVKLEPPWIQVLKEDTVTLTCEGTHNPGNSSTQWFHNGRSIRSQVQASYTFKATVNDSGEYRCQMEQTRLSDPVDLGVISDWLLLQTPQLVFLEGETITLRCHSWRNKLLNRISFFHNEKSVRYHHYSSNFSIPKANHSHSGDYYCKGSLGRTLHQSKPVTITVQGPKSSR
notes: also called murine Fcγ RIIb
As to B1, the binding result in assay [1] is on record as “binds”.

B2: human Fcγ RIIb (receptor)
chain: APPKAVLKLEPQWINVLQEDSVTLTCRGTHSPESDSIQWFHNGNLIPTHTQPSYRFKANNNDSGEYTCQTGQTSLSDPVHLTVLSEWLVLQTPHLEFQEGETIVLRCHSWKDKPLVKVTFFQNGKSKKFSRSDPNFSIPQANHSHSGDYHCTGNIGYTLYSSKPVTITVQAP
For the molecule B2, the binding result in assay [1] was “binds”.

B3: rat FcγR3A/CD16a (receptor)
chain: GLQKAVVNLDPEWVRVLEEDCVILRCQGTFSPEDNSTKWFHNKSLISHQDANYVIQSARVKDSGMYRCQTAFSALSDPVQLDVHADWLLLQTTKRLFQEGDPIRLRCHSWRNTPVFKVTYLQNGKGKKYFHRNSELSISKATHADSGSYFCRGIIGRNNISSASLQISIGDPTSPSSFLPWHQ
Turning to B3, in assay [2], the binding result is “binds”.
